What was measured:
[1] = target: purified recombinant procaspase 1 (human, Alexis Biochemicals) (human) (UniProt P29466); assay: co-immunoprecipitation of purified recombinant proteins (C/EBPβ peptides 200 µM), immunoblot, densitometry; reference C/EBPβ 216-253-HA-Ala217
[2] = target: purified recombinant procaspase 8 (human, Alexis Biochemicals) (human) (UniProt Q14790); assay: as above
[3] = target: purified recombinant procaspase 1 (human, Alexis Biochemicals) (human) (UniProt P29466); assay: co-immunoprecipitation of purified recombinant proteins (C/EBPβ peptides 200 µM), immunoblot, densitometry; reference C/EBPβ-HA-Ala217

purified recombinant procaspase 8 (human, Alexis Biochemicals) (human), sequence (Q14790 217-479 limits assumed): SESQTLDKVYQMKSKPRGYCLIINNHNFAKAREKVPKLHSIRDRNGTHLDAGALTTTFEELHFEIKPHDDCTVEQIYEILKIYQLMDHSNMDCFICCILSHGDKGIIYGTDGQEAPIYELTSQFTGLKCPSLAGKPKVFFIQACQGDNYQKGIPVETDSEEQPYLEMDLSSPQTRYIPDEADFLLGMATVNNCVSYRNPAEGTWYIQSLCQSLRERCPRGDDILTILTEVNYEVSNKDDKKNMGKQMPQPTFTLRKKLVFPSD

Row | Substance | fold more co-immunoprecipitated than the Ala^217 peptides (densitometry) [1] | fold more co-immunoprecipitated than the Ala^217 peptides (densitometry) [2] | fold more co-immunoprecipitated than the Ala^217 peptides (densitometry) [3]
1 | C/EBPβ 216-253-HA-Glu^217 | 7 fold | 12 fold | 
2 | C/EBPβ-HA-Glu^217 (from UniProt P28033 1-296) |  |  | 7 fold

From US20100035825A1
